# T1: CotA-His6 (Clostridium difficile, UniProt Q186G8 SEQ:1-305)
# T1 sequence: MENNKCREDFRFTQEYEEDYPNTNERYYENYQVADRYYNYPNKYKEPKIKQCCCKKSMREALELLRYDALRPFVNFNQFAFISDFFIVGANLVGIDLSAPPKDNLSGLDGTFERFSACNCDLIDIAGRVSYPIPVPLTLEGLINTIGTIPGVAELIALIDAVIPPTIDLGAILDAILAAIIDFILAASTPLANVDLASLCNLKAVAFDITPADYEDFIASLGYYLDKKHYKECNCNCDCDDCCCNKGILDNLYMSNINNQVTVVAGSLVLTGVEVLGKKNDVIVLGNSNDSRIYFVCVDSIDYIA
# Key:
# [1] = molecular target: CotE (rCotE LS25, N281-F712) (Clostridium difficile); experiment: SPR; settings: tags: His-tagged (Ni-NTA)
# Protocol: (§1) For CotE D2, CotE H2 and CotEC chitinase, aptamers were spotted on a gold surface at a concentration of 5 μM in PBS at a volume of approximately 10 nL in triplicate. Negative aptamers of the same length as the positive aptamers were spotted in the same manner, also in triplicate. Protein was then injected over the chip at a volume of 200 μL, with a flow rate of 50 μL/min in a Horiba (OpenPlex) surface plasmon resonance imaging (SPRi) instrument. Resonance due to binding was obtained by subtracting total resonance on the negative sequences from total resonance on the positive sequences. Disassociation values were computed with the following equation: dx/dt˜−kd*x, wherein dx/dt is the derivative of resonance values as a function of time and x is the resonance value for any given time point. Association values were computed with the following equation: dx/dt˜ka*c*Rmax−(ka*c+kd)*x, where x is the resonance due to binding at specific time points, c is the concentration of injectant, and Rmax is the maximum resonance observed.
# (§2) Surface plasmon resonance imaging (SPRi) analysis of binding was performed with the various aptamers immobilized on a surface while the protein was flowed over at various concentrations.
# [2] = molecular target: CotEC chitinase (rCotEC, AB45, aa381-712 of CotE) (Clostridium difficile); experiment: SPR; settings: tags: His-tagged (Ni-NTA)
# Protocol: as §1, §2
# HIV-1 p24 capsid protein = HIV-1 p24 capsid protein (Human immunodeficiency virus 1, UniProt P04591 P04591:133-363); experiment: negative control protein; only aspecific fluorescence recovery, graphene oxide assay; settings: tags: E. coli derived; RayBiotech 212-10004; label: 5'-FAM
# Protocol: Once the quenched signal was stabilized, a fixed concentration of the target protein was added to the aptamer-GO mix (5 nM aptamer+0.5 ng/μL GO), and the recovery in quenched signal was recorded over time.
# As negative control, a non-target protein at the same concentration (HIV cap protein P24) was added to the aptamer-GO mix.
# Using 0.005% PEG in the buffer system, and 5 nM Fam-H2.1.2 with 0.5 ng/μL GO, the recovery of quenched signal was recorded after adding 50 nM of target protein (CotE) and 50 nM negative control protein (P24).
# CotA-His6 [3] = molecular target: T1, CotA-His6; experiment: SPR; 1.84E-08; protein immobilized; settings: tags: His6
# Protocol: (§3) For CotA C1, the protein was immobilized on a hydrogel chip with EDC-mediated conjugation between primary amines on the protein (side chains on residues) and carboxylic acid groups on the surface of the chip. A protein of similar size was immobilized in the same manner as a negative control. […] For CdeC D1, the protein was received as aggregated, insoluble balls of protein. The binding assay was performed by incubating fluorescently labeled aptamers (FAM) with the protein, and then spinning the tubes down in a microcentrifuge to remove unbound. The pellet was resuspended in selection buffer and spun down again. Bound aptamers were eluted by adding 6 M urea, and spinning again, retaining the supernatant. The aptamers were cleaned up with PCR cleanup columns and the fluorescence was read on a Tecan Sapphire II fluorometer. Excitation was at 497 nm, and emission was at 515 nm. The amount of fluorescence measured in the eluant was divided by the total amount of fluorescence of all fractions.
# CotA-His6 [4] = molecular target: T1, CotA-His6; experiment: SPR; 7.82E-08; protein immobilized; settings: tags: His6; optimized potential G-quartet
# Protocol: as §3
# CdeC = CdeC (Clostridium difficile); experiment: pulldown; settings: tags: His-tagged (Ni-NTA)
# Protocol: (§4) The binding assay was performed by incubating fluorescently labeled aptamers (FAM) with the protein, and then spinning the tubes down in a microcentrifuge to remove unbound. The pellet was resuspended in selection buffer and spun down again. Bound aptamers were eluted by adding 6 M urea, and spinning again, retaining the supernatant. The aptamers were cleaned up with PCR cleanup columns and the fluorescence was read on a Tecan Sapphire II fluorometer. Excitation was at 497 nm, and emission was at 515 nm. The amount of fluorescence measured in the eluant was divided by the total amount of fluorescence of all fractions.
# (§5) D1 CdeC: The original aptamer sequence was SEQ ID NO: 6, which binds to the CdeC protein from C. difficile. […] Two aptamers, D1.1 (SEQ ID NO: 38) and D1.2 (SEQ ID NO: 39), were designed to stabilize the structure observed in the analysis of the original sequence (FIG. 11). The CdeC protein self-aggregates in aqueous solutions making surface plasmon resonance analysis difficult. The protein forms large aggregates that are insoluble. The protein aggregates were combined as suspensions with the aptamers in solutions, allowed to incubate at room temperature for 15 min, and then spun down in a microcentrifuge to remove unbound aptamer. The complexes were washed with the appropriate selection buffer (50 mM Tris pH 7.6, 2.5 mM MgCl₂, 2.5 mM CaCl₂, 85 mM KOAc, 0.01% Tween 20, 0.01% BSA) once and the spin process was repeated. Finally, the bound aptamer was eluted from the protein structures with the addition of 6M urea. The protein aggregates were spun again, and this time the supernatant containing the eluted aptamers was retained. The aptamers were synthesized with a FAM label on the 5′ end for this analysis.
# (§6) The CdeM protein is similar to the CdeC protein in that it forms aggregated balls when purified. An amount of protein equivalent to 1 E8 particles with 1 μM of each of the Em2, Em2.1 and Em2.2 aptamers in a total volume of 50 μL in the CdeM buffer was used. The mixture was allowed to incubate for 15 min at room temperature, then centrifuged. The supernatant was removed, and the pellet resuspended in CdeM buffer. This was centrifuged again and the wash process repeated once more.
# CotA-His6 [5] = molecular target: T1, CotA-His6; experiment: SPR; 5.21E-08; protein immobilized; settings: tags: His6
# Protocol: as §3
# CdeM = CdeM (Clostridium difficile); experiment: pulldown; settings: tags: His-tagged (Ni-NTA)
# Protocol: as §4, §5, §6
binder,measurement,setting,value
CTTGACCTTTGGAATGGGTGGGAGGGATGGGTACTATCCACAGGTCAACC (ssDNA) [CotE H2.1],Kd,[1],17.5 nM
CotEC Chitinase D11.1 (ssDNA) DNA: AACTGCCTGGTAAATCGATGACCGCTGCCTCGCCTGAGTAATCATCGTACTATCCACAGGTC,Kd,[2],295 nM
CTTGACCTTTGGAATGGGTGGGAGGGAGGGTATCCACAGGTCAACC (ssDNA) [FAM-CotE H2.1.2],binding result,HIV-1 p24 capsid protein,no binding
CTTGACCTTTGGAATGGGTGGGAGGGAGGGTATCCACAGGTCAACC (ssDNA) [CotE H2.1.2],Kd,[1],7.52 nM
ACTCAAGGCCGTGGACTGGTCGGGTTTGGATTCGGCAGATGAATCACT (ssDNA) [CotA C1.1],Kd,CotA-His6 [3],18.4 nM
CotE H2.1.1 (ssDNA) DNA: CTTGACCTTTGGAATGGGTAGGGAGGGAGGGATACTATCCACAGGTCAACC,Kd,[1],> 250 nM
ACCCGTGGGACTGGGTCGGGTCGGG (ssDNA) [CotA C1.3],Kd,CotA-His6 [4],78.2 nM
CdeC D1.2 (ssDNA) DNA: ACTACTCAATGCCGTGGACTGGTCGGGTTTGGAATCGGCAGATGAATCAGTAGTAAA,binding result,CdeC,binds
CotE D2.2 (ssDNA) DNA: ACTACTCAATGCTCGACATTTCCGCCCCGACGGCCCTCCTAGTGATGGGGAGAGTAGA,Kd,[1],207 nM
ACTCAAGGCCGTGGACTGGTCGGGTTTGGAT (ssDNA) [CotA C1.2],Kd,CotA-His6 [5],52.1 nM
AATGGGTGGGAGGGATGGGTACTA (ssDNA) [CotE H2.2],Kd,[1],> 250 nM
CdeC D1 (ssDNA) DNA: CCAGTGTAGACTACTCAATGCCGTGGACTGGTCGGGTTTGGATTCGGCAGATGAATCAGTAGTACTATCCACAGGTCAACC,binding result,CdeC,binds
CdeM E2/Em2 (ssDNA) DNA: CCAGTGTAGACTACTCAATGCCTTCCATTCACCTACCGAGCTAAGCGTTCGACTTAGGTCTGTACTATCCACAGGTCAACC,binding result,CdeM,binds
CotE D2.1 (ssDNA) DNA: ACTACTCAATGCTCGACATTTCCGCCCCGACGGCCCTCCTAGTGAGGGGAGAGTAGA,Kd,[1],34.1 nM
CdeM Em2.1 (ssDNA) DNA: CTCAATGCCTTCCATTCACCTACCGAGCTAAGCGTTCGACTTAGGTCTGTACT,binding result,CdeM,binds

# — patent publication US20220177886, “[…] AGAINST CLOSTRIDIUM […], COMPOSITIONS COMPRISING […] AGAINST CLOSTRIDIUM […] AND METHODS OF USING THE SAME” (Biovector, Inc., published 2022)
